Source: the supplement of paper PMC9170038

How the values were obtained:
MS2 coat protein [1] = experiment: apparent KD of MS2 coat protein; designed switch direction (-1 OFF switch, 1 ON switch): -1; higher = weaker reporter binding; details: Eterna round: R98
Procedure: (§1)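 RNA-MaP: designed FMN/MS2 RNA switches (84 nt design region) are transcribed on-chip within common flanks and titrated with SNAP-549-labelled MS2 coat protein (about 1-3000 nM) in 100 mM Tris pH 7.5, 80 mM KCl, 4 mM MgCl2, without or with 200 uM FMN. Median apparent KD per design; activation ratio = KD,OFF / KD,ON.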

MS2 coat protein [2] = experiment: apparent KD of MS2 coat protein; higher = weaker reporter binding; details: Eterna round: R101
Procedure: as §1

Sequence | apparent KD of MS2 coat protein (MS2 coat protein [1]; input ligand: FMN 200 uM) [nM] | apparent KD of MS2 coat protein (MS2 coat protein [1]; input ligand: none) [nM] | apparent KD of MS2 coat protein (MS2 coat protein [2]; input ligand: FMN 200 uM) [nM] | apparent KD of MS2 coat protein (MS2 coat protein [2]; input ligand: none) [nM]
CCAUAAAAGAUCCAAAAUUACAACAUGAGGAUCACCCAUGUGCAGGAUAUCGUGAAAGUAAAAUACGAGAAGGGCAAGAACUGC [salish99_ExNG3_r2_004] | 425 | 430 | – | –
CCUGCACUUCAAGGAUAUCCAGUCGAAACGACUGGAGAAGGUGAGGAUCACCCAUCUAGCCUGACGAAAGUCAGGCAUGCAGGA [#SharedSequence - ExNG1-7] (puzzle (switch architecture): Exclusion NG 1) | – | – | 101 | 90.4
UAAAUAAAUCCUAGAGGAUCACCCUAGGAUAUGAGGCUGCACCUCGGAUAAUCCGAGGUGCAGCCUCAGAAGGAGGGUAAUAAA [#SharedSequence - SLExNG3: 1-2] (puzzle (switch architecture): Small Loop Exclusion NG 3) | – | – | 43.1 | 14.4
UCAUAAUAGAUCCUAUUUAUCUACAUGAGGAUCACCCAUGUGCAGGAUAUGCUAAAAUUAAAAUAGCAGAAGGGCAAUUUCAGC [JR_ExcNG3_Sub013] | 359 | 94.3 | – | –
AAAGAUUUUUAAGGAUAUCAGUGGCAAAGCCACUGAGAAGGUGAGGAUCACCCAUCUACGUGACCCUGGAAACAGGGUCACGAA [#SharedSequence - ExNG1-16] (puzzle (switch architecture): Exclusion NG 1) | – | – | 96.9 | 56.7
GGUCGACCUCAAGGAUAUGGACUGCUUUGCAGUCCAGAAGGUGAGGAUCACCCACCUACGGUCAGGUUUCUGACCGAUCGACCU [#AddUracilToBrourdLoops 2 - Jieux - Exclusion NG1] (puzzle (switch architecture): Exclusion NG 1) | – | – | 79.2 | 14.2
UUCUGUGCCCAAAGUUUAAGCACAUGAGGAUCACCCAUGUGAAAGGAUAUGUGGCAUGUAAUGUUAUAGAAGGUUCACAAUCAA [Esadi] | 23.9 | 15.8 | – | –
AAAGAUUUUUAAGGAUAUGACUCCGAAACGGAGUCAGAAGGUGAGGAUCACCCACCUAGCUCAGGGUCGAAAGACCCUGAGCAA [#SharedSequence - ExNG1-13] (puzzle (switch architecture): Exclusion NG 1) | – | – | 9.48 | 9.02
ACAGGUCGUGAGAAGGCGGGUGGCACCGUCGAAAGACGGUGCAAUUAAAAUCUUCGAGGAUCACCCGAGGAUAUCACGACCUGA [#SharedSequence - IExNG2: 17] (puzzle (switch architecture): Inverted Exclusion NG 2) | – | – | 28.6 | 55.9
GGUCGACCUCAAGGAUAUGGACUGCUUUGCAGUCCAGAAGGUGAGGAUCACCCAUCUACGGUCAGGUUUCUGACCGAUCGACCU [#AddUracilToBrourdLoops 6 - Jieux - Exclusion NG1] (puzzle (switch architecture): Exclusion NG 1) | – | – | 260 | 282
UGGUAUAAGGGCAUUACACAUGAGGAUCACCCAUGUACGUUAGAGGAUAUGCAUUCCAGUCGAACGUAGAAGGUUAGAGAAGGG [Morebubblesahh#8abcdefghij] | 150 | 113 | – | –
AGAGCUGCUCAGAAGGAGGAUCACCCUUUCGAAAGAAAUACGGAGGCUGAAAAGCCUCCGAAAUUCUAGGAUAUGAGCAGCUCA [#SharedSequence - IExNG2: 7] (puzzle (switch architecture): Inverted Exclusion NG 2) | – | – | 133 | 167
GUAGCAUUCUGAGGAUAUUCAUACCGGAAACGGACAUGAGGAUCACCCAUGUGGCGAAAGCCUUGGGAGAAGGCAGUAUGCUAC [#DoubleMagnetSystem - Xeonanis 25 9 - Original] (puzzle (switch architecture): Same State NG 2) | – | – | 9.21 | 247
AGACCUGCUCAGAAGGCGGAUACGAGGCUGGAAACAGCCUCGUAAUUAAAUCUUCGAGGAUCACCCGAGGAUAUGAGCAGGUCA [#SharedSequence - IExNG2: 13] (puzzle (switch architecture): Inverted Exclusion NG 2) | – | – | 28.4 | 10.3
